Experiment [1] has as its target recombinant human FcRn (transmembrane and cytoplasmic domains replaced with a poly-histidine tag) (human) (UniProt P55899). Kind of experiment: … bead competition: unlabelled test antibody against biotinylated human IgG1 CNT06234 for recombinant FcRn, pH 6.4.
Experiment [2] concerns the target human FcγRI (recombinant, polyhistidine-tagged) (human) (UniProt P12314). Nature of the experiment: SPR (BIACORE 3000), His-tagged receptor captured on anti-His IgG, antibody injected; 1:1 steady state fit.
Experiment [3] concerns the target human FcγRIIa (recombinant, Example 1; allotype not stated) (human) (UniProt P12318). Kind of experiment: … bead competition: unlabelled test antibody against a biotinylated control antibody (human IgG1 CNT06234 by paragraph 15/paragraph 85; paragraph 86 says 'against IgG2') for recombinant FcgRIIa.
Experiment [4] deals with human FcγRIIIa (recombinant, Example 1) (human) (UniProt P08637). Kind of experiment: SPR (BIACORE 3000), His-tagged receptor captured on anti-His IgG, antibody injected; 1:1 steady state fit. For orientation: In SPR one partner is held on a chip, and binding of the other changes the refractive index at the surface.
Experiment [5] deals with human FcγRIIa (recombinant, Example 1; allotype not stated) (human) (UniProt P12318). The experiment is described as above.
In experiment [6] the target is human FcγRIIIa (recombinant, Example 1) (human) (UniProt P08637). Kind of experiment: SPR (BIACORE 3000), His-tagged receptor captured on anti-His IgG, antibody injected; 1:1 kinetic fit.
The target in experiment [7] is human FcγRI (recombinant, polyhistidine-tagged) (human) (UniProt P12314). Described as above.
Experiment [8] addresses human FcγRIIa (recombinant, Example 1; allotype not stated) (human) (UniProt P12318). Kind of experiment: … direct binding (avidity) assay: biotinylated test antibody and recombinant His-tagged FcgRIIa on donor and acceptor beads.

Chain of human FcγRIIIa (recombinant, Example 1) (human) (P08637 17-208 F176V limits assumed): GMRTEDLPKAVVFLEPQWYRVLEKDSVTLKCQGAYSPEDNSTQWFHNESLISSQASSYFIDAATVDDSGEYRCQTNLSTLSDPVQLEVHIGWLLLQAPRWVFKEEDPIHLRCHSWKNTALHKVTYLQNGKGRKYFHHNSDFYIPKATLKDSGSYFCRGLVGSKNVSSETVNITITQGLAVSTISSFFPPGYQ
Chain of human FcγRI (recombinant, polyhistidine-tagged) (human) (P12314 16-288 limits assumed): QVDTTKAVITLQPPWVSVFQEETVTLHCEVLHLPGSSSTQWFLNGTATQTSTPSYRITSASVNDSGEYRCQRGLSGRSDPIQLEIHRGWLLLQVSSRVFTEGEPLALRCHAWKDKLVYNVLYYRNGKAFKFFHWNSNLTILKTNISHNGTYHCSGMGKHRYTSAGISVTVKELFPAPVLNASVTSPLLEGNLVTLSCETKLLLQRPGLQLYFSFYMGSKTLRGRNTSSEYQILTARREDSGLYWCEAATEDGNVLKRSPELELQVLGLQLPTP
Chain of human FcγRIIa (recombinant, Example 1; allotype not stated) (human) (P12318 36-218 limits assumed): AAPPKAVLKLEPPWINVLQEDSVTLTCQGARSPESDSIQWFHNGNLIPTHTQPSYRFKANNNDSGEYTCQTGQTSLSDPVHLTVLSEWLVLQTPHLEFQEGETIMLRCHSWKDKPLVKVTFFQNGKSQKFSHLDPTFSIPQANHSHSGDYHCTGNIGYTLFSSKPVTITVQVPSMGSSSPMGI
Chain of recombinant human FcRn (transmembrane and cytoplasmic domains replaced with a poly-histidine tag) (human) (P55899 other isoform, or with tags, fused parts or gaps, form in doubt): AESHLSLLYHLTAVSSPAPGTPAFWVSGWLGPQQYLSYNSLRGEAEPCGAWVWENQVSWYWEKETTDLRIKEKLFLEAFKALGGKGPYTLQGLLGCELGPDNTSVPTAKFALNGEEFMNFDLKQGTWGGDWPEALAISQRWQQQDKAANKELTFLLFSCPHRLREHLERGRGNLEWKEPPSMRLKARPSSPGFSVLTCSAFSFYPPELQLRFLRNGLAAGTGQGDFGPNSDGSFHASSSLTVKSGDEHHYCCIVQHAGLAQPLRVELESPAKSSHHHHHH

For orientation: Kd means the equilibrium constant for the complex coming apart. As for “IgG1 Ag (human IgG1 N297A, aglycosylated, anti-Her2/neu construct) (antibody)”, the IC50 (read off the curve) in experiment [1] stood at 0.1 mg/mL. The Kd in experiment [2] was 3.7 µM.

With “IgG2c4a (human IgG2 H268A, V309L, A330S, P331S, anti-Her2/neu construct) (antibody)”, the IC50 (read off the curve) in experiment [1] worked out at 0.06 mg/mL; in experiment [3] it was 0.02 mg/mL. For the same substance, the results for the Kd in experiment [4], in experiment [2] and in experiment [5] were 85 µM, 160 µM and 2200 nM, respectively.

For “IgG2c4b (human IgG2 V234A, G237A, H268Q, V309L, A330S, P331S, anti-Her2/neu construct) (antibody)”, the IC50 (read off the curve) in experiment [1] is 0.06 mg/mL; in experiment [3], 0.1 mg/mL. Further, the Kd was found to be 38 µM in experiment [2] and 170000 nM in experiment [5].

For “IgG2c4c (human IgG2 V234A, G237A, H268A, V309L, A330S, P331S, anti-Her2/neu construct) (antibody)”, the IC50 (read off the curve) in experiment [3] came out at 0.06 mg/mL. Also, the values for the Kd in experiment [5], in experiment [6] and in experiment [7] were 19000 nM, 640 nM and 44 nM, respectively.

Regarding “IgG2c4e (human IgG2 P233S, V234A, G237A, P238S, H268A, V309L, A330S, P331S, anti-Her2/neu construct) (antibody)”, in experiment [1], the IC50 (read off the curve) came out at 0.1 mg/mL.

Usually EC50 (read off the curve) stands for the midpoint of the concentration-response curve. In the case of “IgG2m4 (human IgG2 H268Q, V309L, A330S, P331S, anti-Her2/neu construct) (antibody)”, the EC50 (read off the curve) in experiment [8] was determined as 200 ng/mL. For the same substance, the IC50 (read off the curve) in experiment [1] came to 0.08 mg/mL; in experiment [3], 0.03 mg/mL. In addition, the results for the Kd in experiment [4], in experiment [2] and in experiment [5] were 95 µM, 210 µM and 2700 nM, respectively.

Regarding “IgG4 A/A (human IgG4 S228P, F234A, L235A, anti-Her2/neu construct) (antibody)”, the IC50 (read off the curve) in experiment [1] came out at 0.1 mg/mL. Further, the values for the Kd in experiment [4], in experiment [2] and in experiment [5] were 55 µM, 15 µM and 150000 nM, respectively.

On to “huIgG1 (wild type human IgG1 isotype antibody, anti-Her2/neu construct)”, for which the EC50 (read off the curve) in experiment [8] amounted to 100 ng/mL. For the same substance, the IC50 (read off the curve) in experiment [1] was 0.07 mg/mL; in experiment [3] it was 0.006 mg/mL. Further, the Kd in experiment [5] stood at 1700 nM; in experiment [7], 13 nM.

On to “huIgG2 (wild type human IgG2 isotype antibody, anti-Her2/neu construct)”, for which the EC50 (read off the curve) in experiment [8] came out at 200 ng/mL. Also, the IC50 (read off the curve) in experiment [1] is 0.08 mg/mL; in experiment [3], 0.05 mg/mL. Also, the Kd was found to be 41 µM in experiment [4], 120 µM in experiment [2] and 1000 nM in experiment [5].
